# Test results taken from patent US20180346602A1.
# Substitutions are numbered along the chain they refer to.
# B1: anti-AAA variant Fc-region antibody M1.6.22 (antibody, V domains shown)
# VH: EVQLVESGGDLVKPGGSLKLSCAASGFTFSSYGMSWVRQTPDKRLEWVATISSGGSYIYYPDSVKGRFTISRDNAKNTLYLQMSSLKSEDTAMYYCARLGMITTGYAMDYWGQGTSVTVSS
# VL: DVLMTQTPLSLPVSLGDQASISCRSSQTIVHSTGHTYLEWFLQKPGQSPKLLIYKVSNRFSGVPDRFSGSGSGTDFTLKISRVEAEDLGVYYCFQGSHVPYTFGGGTKLEIK
# B2: anti-variant (human) Fc-region antibody M1.3.17 (antibody, V domains shown)
# VH: EVKLLESGGGLVQPGGSLKLSCAASGIDFRRYWMNWVRQAPGKGLEWIGEIDPDSSTINYTPSLKDKFIISRDNAKNTMYLQMRKVRSEDTALYYCARPYDYGAWFAYWGQGTLVTVSA
# VL: QAVVTQESALTTSPGETVTLTCRSTTGAVTTSNYANWVQEKPDHLFTGLIGGTNKRAPGVPARFSGSLIGDKAALTITGAQTEDEAIYFCALWYSDHWVFGGGTKLTVL
# B3: anti-variant (human) Fc-region antibody M1.7.24 (antibody, V domains shown)
# VH: B2 VH with I27F, R30S, D52T, M79L, R84I, A97V, Y108S
# VL: B2 VL with T25S, D96N
# What was measured:
# [1] = target: anti-VEGF/ANG2 antibody (wild-type IgG1 subclass) (human) [IgG part: P01857]; assay: sandwich ELISA assay B; capture on SA plate; tracer M1.7.10-Dig; analyte 3 ng/mL
# [2] = target: anti-VEGF/ANG2 antibody (wild-type IgG1 subclass) (human) [IgG part: P01857]; assay: sandwich ELISA assay C; capture on SA plate; tracer FcγRI-Dig; analyte 50 ng/mL
# [3] = target: target antibodies; assay: depletion of target antibody from sample; concentration before depletion 100.00 µg/mL
# [4] = target: target antibodies; assay: depletion of target antibody from sample; concentration before depletion 10.00 µg/mL
# [5] = target: anti-VEGF/ANG2 antibody (wild-type IgG1 subclass) (human) [IgG part: P01857]; assay: sandwich ELISA assay B; capture on SA plate; tracer M1.7.10-Dig; analyte 25 ng/mL
# [6] = target: anti-VEGF/ANG2 antibody (wild-type IgG1 subclass) (human) [IgG part: P01857]; assay: sandwich ELISA assay B; capture on SA plate; tracer M1.7.10-Dig; analyte 13 ng/mL
# [7] = target: target antibodies; assay: depletion of target antibody from sample; concentration before depletion 1000.00 µg/mL
# [8] = target: target antibodies; assay: depletion of target antibody from sample; concentration before depletion 30.00 µg/mL
# [9] = target: anti-VEGF/ANG2 antibody (wild-type IgG1 subclass) (human) [IgG part: P01857]; assay: sandwich ELISA assay C; capture on SA plate; tracer FcγRI-Dig; analyte 100 ng/mL
# [10] = target: target antibodies; assay: depletion of target antibody from sample; concentration before depletion 0.30 µg/mL
# [11] = target: anti-VEGF/ANG2 antibody (wild-type IgG1 subclass) (human) [IgG part: P01857]; assay: sandwich ELISA assay C; capture on SA plate; tracer FcγRI-Dig; analyte 13 ng/mL
# [12] = target: target antibodies; assay: depletion of target antibody from sample; concentration before depletion 1.00 µg/mL
# [13] = target: anti-VEGF/ANG2 antibody (IgG1 subclass with mutations P329G/L234A/L235A/I253A/H310A/H435A) [IgG part: P01857]; assay: sandwich ELISA assay E; tracer M1.7.10-Dig; analyte 1) at 12.5 ng/mL
# [14] = target: anti-VEGF/ANG2 antibody (IgG1 subclass with mutations P329G/L234A/L235A) [IgG part: P01857]; assay: sandwich ELISA assay E; tracer M1.7.10-Dig; analyte 2) at 6.25 ng/mL
# [15] = target: anti-Dig antibody (IgG1 subclass with mutations P329G/L234A/L235A) [IgG part: P01857]; assay: sandwich ELISA assay D; tracer M1.7.10-Dig; analyte conc. not printed (row 2 of 8)
# [16] = target: anti-VEGF/ANG2 antibody (IgG1 subclass with mutations P329G/L234A/L235A) [IgG part: P01857]; assay: sandwich ELISA assay E; tracer M1.7.10-Dig; analyte 2) at 1.5625 ng/mL
# [17] = target: anti-Dig antibody (IgG1 subclass with mutations P329G/L234A/L235A) [IgG part: P01857]; assay: sandwich ELISA assay D; tracer M1.7.10-Dig; analyte conc. not printed (row 3 of 8)
# [18] = target: anti-Dig antibody (IgG1 subclass with mutations P329G/L234A/L235A) [IgG part: P01857]; assay: sandwich ELISA assay D; tracer M1.19.31-Dig; analyte conc. not printed (row 8 of 8)
# [19] = target: anti-VEGF/ANG2 antibody (IgG1 subclass with mutations P329G/L234A/L235A/I253A/H310A/H435A) [IgG part: P01857]; assay: sandwich ELISA assay E; tracer M1.7.10-Dig; analyte 1) at 6.25 ng/mL
# [20] = target: anti-Dig antibody (IgG1 subclass with mutations P329G/L234A/L235A) [IgG part: P01857]; assay: sandwich ELISA assay D; tracer M1.19.31-Dig; analyte conc. not printed (row 7 of 8)
# [21] = target: anti-VEGF/ANG2 antibody (IgG1 subclass with mutations P329G/L234A/L235A/I253A/H310A/H435A) [IgG part: P01857]; assay: sandwich ELISA assay E; tracer M1.7.10-Dig; analyte 1) at 3.124 ng/mL
# [22] = target: anti-VEGF/ANG2 antibody (IgG1 subclass with mutations P329G/L234A/L235A/I253A/H310A/H435A) [IgG part: P01857]; assay: sandwich ELISA assay E; tracer M1.7.10-Dig; analyte 1) at 1.5625 ng/mL
# [23] = target: anti-VEGF/ANG2 antibody (IgG1 subclass with mutations P329G/L234A/L235A) [IgG part: P01857]; assay: sandwich ELISA assay E; tracer M1.7.10-Dig; analyte 2) at 3.124 ng/mL
# [24] = target: anti-Dig antibody (IgG1 subclass with mutations P329G/L234A/L235A) [IgG part: P01857]; assay: sandwich ELISA assay D; tracer M1.19.31-Dig; analyte conc. not printed (row 4 of 8)
# [25] = target: anti-Dig antibody (IgG1 subclass with mutations P329G/L234A/L235A) [IgG part: P01857]; assay: sandwich ELISA assay D; tracer M1.7.10-Dig; analyte conc. not printed (row 4 of 8)
# [26] = target: anti-VEGF/ANG2 antibody (IgG1 subclass with mutations P329G/L234A/L235A) [IgG part: P01857]; assay: sandwich ELISA assay E; tracer M1.7.10-Dig; analyte 2) at 50 ng/mL
binder,measurement,setting,value
B1,signal [OD405 nm],[1],0.037 OD405 nm
same,signal [OD405 nm],[2],0.067 OD405 nm
same,concentration after depletion,[3],0.0143 µg/mL
same,recovery [%],[3],0.014%
same,concentration after depletion,[4],0.0005 µg/mL
same,recovery [%],[4],0.005%
same,signal [OD405 nm],[5],0.047 OD405 nm
same,signal [OD405 nm],[6],0.046 OD405 nm
same,concentration after depletion,[7],0.0163 µg/mL
same,recovery [%],[7],0.002%
same,concentration after depletion,[8],0.0054 µg/mL
same,recovery [%],[8],0.018%
same,signal [OD405 nm],[9],0.076 OD405 nm
same,concentration after depletion,[10],0.0001 µg/mL
same,recovery [%],[10],0.039%
same,signal [OD405 nm],[11],0.07 OD405 nm
same,concentration after depletion,[12],0.0003 µg/mL
same,recovery [%],[12],0.031%
B2,signal [OD405 nm],[13],1.09 OD405 nm
same,signal [OD405 nm],[14],0.577 OD405 nm
same,concentration after depletion,[3],0.0173 µg/mL
same,recovery [%],[3],0.017%
same,signal 10% cynomolgus serum [OD405 nm],[15],1.18 OD405 nm
same,signal 10% human serum [OD405 nm],[15],2.55 OD405 nm
same,signal buffer [OD405 nm],[15],0.038 OD405 nm
same,concentration after depletion,[4],0.0017 µg/mL
same,recovery [%],[4],0.017%
same,signal [OD405 nm],[16],0.187 OD405 nm
same,signal 10% cynomolgus serum [OD405 nm],[17],0.485 OD405 nm
same,signal 10% human serum [OD405 nm],[17],2.51 OD405 nm
same,signal buffer [OD405 nm],[17],0.037 OD405 nm
same,signal 10% cynomolgus serum [OD405 nm],[18],0.077 OD405 nm
same,signal 10% human serum [OD405 nm],[18],1.8 OD405 nm
same,signal buffer [OD405 nm],[18],0.036 OD405 nm
same,concentration after depletion,[7],0.0169 µg/mL
same,recovery [%],[7],0.002%
same,signal [OD405 nm],[19],0.677 OD405 nm
same,concentration after depletion,[8],0.008 µg/mL
same,recovery [%],[8],0.027%
same,signal 10% cynomolgus serum [OD405 nm],[20],0.075 OD405 nm
same,signal 10% human serum [OD405 nm],[20],1.71 OD405 nm
same,signal buffer [OD405 nm],[20],0.033 OD405 nm
same,signal [OD405 nm],[21],0.383 OD405 nm
same,signal [OD405 nm],[22],0.224 OD405 nm
same,signal [OD405 nm],[23],0.316 OD405 nm
same,signal 10% cynomolgus serum [OD405 nm],[24],0.162 OD405 nm
same,signal 10% human serum [OD405 nm],[24],1.73 OD405 nm
same,signal buffer [OD405 nm],[24],0.037 OD405 nm
same,concentration after depletion,[10],0.0002 µg/mL
same,recovery [%],[10],0.065%
same,signal 10% cynomolgus serum [OD405 nm],[25],0.194 OD405 nm
same,signal 10% human serum [OD405 nm],[25],2.48 OD405 nm
same,signal buffer [OD405 nm],[25],0.032 OD405 nm
same,signal [OD405 nm],[26],1.89 OD405 nm
same,concentration after depletion,[12],0.0007 µg/mL
same,recovery [%],[12],0.067%
B3,signal [OD405 nm],[13],1.06 OD405 nm
same,signal [OD405 nm],[14],0.528 OD405 nm
same,signal [OD405 nm],[1],0.033 OD405 nm
same,signal [OD405 nm],[2],0.066 OD405 nm
same,signal 10% cynomolgus serum [OD405 nm],[15],1.41 OD405 nm
same,signal 10% human serum [OD405 nm],[15],2.61 OD405 nm
same,signal buffer [OD405 nm],[15],0.046 OD405 nm
same,signal [OD405 nm],[16],0.172 OD405 nm
same,signal [OD405 nm],[5],0.041 OD405 nm
same,signal 10% cynomolgus serum [OD405 nm],[17],0.575 OD405 nm
same,signal 10% human serum [OD405 nm],[17],2.48 OD405 nm
same,signal buffer [OD405 nm],[17],0.039 OD405 nm
same,signal 10% cynomolgus serum [OD405 nm],[18],0.035 OD405 nm
same,signal 10% human serum [OD405 nm],[18],1.42 OD405 nm
same,signal buffer [OD405 nm],[18],0.033 OD405 nm
same,signal [OD405 nm],[6],0.04 OD405 nm
same,signal [OD405 nm],[19],0.64 OD405 nm
same,signal 10% cynomolgus serum [OD405 nm],[20],0.039 OD405 nm
same,signal 10% human serum [OD405 nm],[20],1.39 OD405 nm
same,signal buffer [OD405 nm],[20],0.033 OD405 nm
same,signal [OD405 nm],[21],0.363 OD405 nm
same,signal [OD405 nm],[22],0.208 OD405 nm
same,signal [OD405 nm],[23],0.298 OD405 nm
same,signal 10% cynomolgus serum [OD405 nm],[24],0.173 OD405 nm
same,signal 10% human serum [OD405 nm],[24],1.43 OD405 nm
same,signal buffer [OD405 nm],[24],0.037 OD405 nm
same,signal [OD405 nm],[9],0.073 OD405 nm
same,signal 10% cynomolgus serum [OD405 nm],[25],0.223 OD405 nm
same,signal 10% human serum [OD405 nm],[25],2.46 OD405 nm
same,signal buffer [OD405 nm],[25],0.034 OD405 nm
same,signal [OD405 nm],[11],0.057 OD405 nm
same,signal [OD405 nm],[26],1.8 OD405 nm
